These results are taken from patent US20190359693A1.

Assay [1] deals with HA of B/Florida/04/2006 (Yamagata) (influenza B virus). Description: AlphaLISA competition vs CR9114.
Assay [2] has as its target HA of B/Brisbane/60/2008 (Victoria) (influenza B virus). In words: AlphaLISA competition vs CR9114.
In assay [3] the target is HA of H3N2 A/Brisbane/10/2007 (influenza A virus). In words: AlphaLISA competition vs CR9114. A general note: Alpha assays give light when donor and acceptor beads are brought close together.
Assay [4] addresses HA of B/Florida/04/2006 (Yamagata) (influenza B virus). Description: cell-based or functional assay.
Assay [5] has as its target HA of B/Brisbane/60/2008 (Victoria) (influenza B virus). Description: cell-based or functional assay.
Assay [6] deals with hemagglutinin (HA) of influenza B/Malaysia/2506/04 (Victoria) (influenza B virus). Description: cell-based or functional assay.
In assay [7] the target is hemagglutinin (HA) of influenza B/Lee/40 (Old) (influenza B virus) (UniProt P03460). Description: cell-based or functional assay.
The target in assay [8] is hemagglutinin (HA) of influenza B/Florida/04/06 (Yamagata) (influenza B virus). In words: cell-based or functional assay.
Assay [9] addresses hemagglutinin (HA) of influenza B/Harbin/7/94 (Yamagata) (influenza B virus). In words: cell-based or functional assay.
Assay [10] concerns the target hemagglutinin (HA) of influenza B/Massachusetts/02/12 (Yamagata) (influenza B virus). In words: cell-based or functional assay.
The target of assay [11] is HA of H3N2 A/Brisbane/10/2007 (influenza A virus). Description: AlphaLISA competition vs SD1038.
Assay [12] addresses HA of B/Brisbane/60/2008 (Victoria) (influenza B virus). In words: AlphaLISA competition vs CR8071.
The target in assay [13] is HA of H3N2 A/Brisbane/10/2007 (influenza A virus). In words: AlphaLISA competition vs 39.29.
Assay [14] shares this target. Description: AlphaLISA competition vs SD1036.
Assay [15] has as its target HA of B/Florida/04/2006 (Yamagata) (influenza B virus). In words: AlphaLISA competition vs CR8033.
For assay [16], the target named is hemagglutinin (HA) of influenza A/Brisbane/10/07 (H3N2) (influenza A virus A/Brisbane/10/07 (H3N2)). In words: cell-based or functional assay.
In assay [17] the target is HA of H7N3 A/NIBRG/60 (A/mallard/NL/12/00) (influenza A virus). In words: cell-based or functional assay.
The target of assay [18] is HA of H1N1 A/Brisbane/59/07 (influenza A virus). In words: cell-based or functional assay.
Assay [19] concerns the target hemagglutinin (HA) of influenza A/waterfowl/Hong Kong/MPA892/06 (H4) (influenza A virus A/waterfowl/Hong Kong/MPA892/06 (H4)). Description: cell-based or functional assay.
The target in assay [20] is hemagglutinin (HA) of influenza A/New York/107/03 (PR8) (influenza A virus A/New York/107/03 (PR8)). In words: cell-based or functional assay.
Assay [21] has as its target HA of H1N1 A/New Caledonia/20/1999 (influenza A virus). In words: cell-based or functional assay.
Assay [22] concerns the target hemagglutinin (HA) of influenza A/chicken/Germany/n/49 (H10N7) (influenza A virus A/chicken/Germany/n/49 (H10N7)). Description: cell-based or functional assay.
Assay [23] addresses HA of H3N2 A/Brisbane/10/2007 (influenza A virus). Description: cell-based or functional assay.
The target in assay [24] is HA of H5N1 A/Vietnam/1194/04 (influenza A virus). Description: cell-based or functional assay.
In assay [25] the target is HA of H3N2 A/Brisbane/10/2007 (influenza A virus). In words: AlphaLISA competition vs CR8020.
Assay [26] has the same target. In words: AlphaLISA competition vs CR8057.
The target in assay [27] is HA of H7N3 A/NIBRG/60 (A/mallard/NL/12/00) (influenza A virus). Description: BLI steady state.
Assay [28] has as its target HA of H3N2 A/Brisbane/10/2007 (influenza A virus). Description: BLI steady state.
Assay [29] concerns the target hemagglutinin (HA) of influenza virus B/Brisbane/60/08 (Victoria) (influenza B virus). In words: cell-based or functional assay.
Assay [30] addresses hemagglutinin (HA) of influenza virus B/Florida/04/06 (Yamagata) (influenza B virus). In words: cell-based or functional assay.
Assay [31] has as its target hemagglutinin (HA) of influenza virus B/Lee/40 (Old) (influenza B virus) (UniProt P03460). In words: cell-based or functional assay.
For assay [32], the target named is recombinant HA of B/Brisbane/60/08 (Victoria) (influenza B virus). Description: biolayer interferometry (Octet), steady-state fit, geometric mean, pH 7.4.
Assay [33] has as its target recombinant HA of B/Florida/04/06 (Yamagata) (influenza B virus). The assay is described as above.
In assay [34] the target is HA of B/Florida/04/2006 (Yamagata) (influenza B virus). Description: AlphaLISA competition vs CR8071.
Assay [35] has as its target HA of H1N1 A/Puerto Rico/8/34-MA (influenza A virus). In words: cell-based or functional assay.
For assay [36], the target named is HA of H5N1 A/PR8 H5N1 HK97 (influenza A virus). In words: cell-based or functional assay.
Assay [37] concerns the target HA of H1N1 A/New Caledonia/20/1999 (influenza A virus). In words: BLI steady state.
Assay [38] deals with hemagglutinin (HA) of influenza virus H5N1 A/Vietnam/1194/04 (influenza A virus). In words: cell-based or functional assay.
In assay [39] the target is hemagglutinin (HA) of influenza virus H7N3 A/NIBRG/60 (A/mallard/Netherlands/12/00) (influenza A virus). Description: cell-based or functional assay.
Assay [40] addresses hemagglutinin (HA) of influenza virus H2N2 A/Guiyang/1/57 (influenza A virus). Description: cell-based or functional assay.
Assay [41] deals with hemagglutinin (HA) of influenza virus H3N2 A/Brisbane/10/07 (influenza A virus). Description: cell-based or functional assay.
The target of assay [42] is hemagglutinin (HA) of influenza virus H7N9 A/Anhui/1/13 (influenza A virus). Description: cell-based or functional assay.
Assay [43] has as its target hemagglutinin (HA) of influenza virus H2N2 A/WF/HK/MPU3156/05 (influenza A virus). In words: cell-based or functional assay.
In assay [44] the target is hemagglutinin (HA) of influenza virus H6N1 A/Taiwan/2/2013 (influenza A virus). In words: cell-based or functional assay.
For assay [45], the target named is hemagglutinin (HA) of influenza virus H3N2 A/HK/1/68-MA (influenza A virus). Description: cell-based or functional assay.
The target in assay [46] is hemagglutinin (HA) of influenza virus H1N1 A/Puerto Rico/8/34-MA (influenza A virus). In words: cell-based or functional assay.

B1: SD1087 (VHH)
VHH: EVQLVESGGGLVQPGGSLRLSCVISGLSLDTYAVGWFRQAPGKEREGITCISSGHGMTYYADSVKGRFTVSTDNAKNTVYLQMNGLQPEDTARYYCATESRYYCSDNWPAPQRYIYWGQGTQVTVSS
As to B1, the pIC50 in assay [1] was 8.8; in assay [2], 7.5; in [3] it was under 7; in assay [11], under 7; in [12], under 7; in [13] it was under 7. Moreover, the pIC50 in assay [14] and in assay [15] was under 7 throughout. Besides, the figures for the VNA titer in [4] and in [5] were over 1000 nM and 10.2 nM, respectively. In addition, the hemagglutination inhibition titer in assay [4] and in assay [5] was over 50 µg/mL throughout. Besides, the VNA IC50 in [6] was 59 nM; in [7], 22 nM; in [8] it was over 1000 nM; in assay [9] it was over 1000 nM; in [10] it was 1000 nM.

B2: SD1046 (VHH)
VHH: EVQLVESGGGLVQAGDSLRISCAASGRTLSIYSMGWFRQAPGKEREFVATIGWNSGRTFYPDSLKGRFTISRDNARNTLYLQMNNLRPEDTAVYYCAAAKGPLRLSSQADYWGQGTQVTVSS
Take B2: the pIC50 is 9.9 in assay [3], 9.6 in assay [25] and under 7 in assay [26]. The VNA titer in assay [4] is over 1000 nM; in [5] it was over 1000 nM; in assay [17], 26.4 nM; in [18] it was over 1000 nM; in assay [21] it was over 1000 nM; in assay [23] it was 6.6 nM. For the same molecule, in assay [24], the VNA titer is over 1000 nM. The VNA IC50 in assay [16] came to 5 nM; in assay [19] it was 3 nM; in assay [20], 34 nM; in assay [22], 13 nM. The Kd in assay [27] turned out to be 3 nM; in assay [28] it was 2 nM.

B3: MD1221 (VHH)
chain: EVQLVESGGGLVQPGGSLRLSCAATGFTLENKAIGWFRQTPGSEREGVLCISKSGSWTYYTDSMRGRFTISRDNAENTVYLQMDSLKPEDTAVYYCATTTAGGGLCWDGTTFSRLASSWGQGTQVTVSSAAAGGGGSGGGGSGGGGSGGGGSGGGGSGGGGSGGGGSEVQLVESGGGLVQPGGSLRLSCAATGFTLENKAIGWFRQTPGSEREGVLCISKSGSWTYYTDSMRGRFTISRDNAENTVYLQMDSLKPEDTAVYYCATTTAGGGLCWDGTTFSRLASSWGQGTQVTVSS
Take B3: the figures for the neutralization titer in assay [29], in [30] and in assay [31] were 23.4 nM, 76.4 nM and 32.5 nM, respectively. Further, the Kd in assay [32] came to 1.7 nM; in assay [33], 1.9 nM.

B4: SD1086 (VHH)
VHH: EVQLVESGGGLVQAGGSLRLSCTASGSISSIDYMRWYRQYPGKHRELVATITSGGAADSRDSVKGRFTVSRGNAANTMYLQMNNLKPEDTAVYYCNAYGLEIGAHWGRGTQVTVSS
For the molecule B4, the pIC50 is 8 in [1]; 8.6 in assay [2]; under 7 in assay [34]; under 7 in assay [12]; under 7 in assay [15]. For the same molecule, the VNA titer in assay [4] is over 1000 nM; in assay [5], 827 nM.

B5: SD1045 (VHH)
VHH: EVQLVESGGGLVQAGGSLRLSCAASGSSFSINVMGWYRQAPGKQREMVATITYGGSTNYVDSVKGRFTISRDNAKNTVYLQMNSLKPEDTAVYYCNSRLAQINYWGQGTQVTVSS
Turning to B5, the VNA titer in assay [4] was over 1000 nM; in [5], over 1000 nM; in [17], over 1000 nM; in assay [21] it was 166 nM; in assay [35], 206 nM; in assay [36], 117 nM. Also, the results for the VNA titer in assay [23] and in [24] were 641 nM and 63.5 nM, respectively. This molecule also showed a Kd in [37] of 5 nM.

B6: MD2312 (bispecific antibody)
chain: EVQLVESGGGLVQAGDSLRLSCAASGPTFGMSAMGWFRQAPGKEREFVAAISGLGNPNYSDDVKGRFTISRENGRNTVYLQMNSLKPEDTAVYYCAQRKVYHVQGGDRPQAYDYWGQGTQVTVSSGGGGSGGGGSEVQLVESGGGLVQAGDSLRISCAASGRTLSIYSMGWFRQAPGKEREFVATIGWNSGRTFYPDSLKGRFTISRDNARNTLYLQMNNLRPEDTAVYYCAAAKGPLRLSSQADYWGQGTQVTVSSGGGGSGGGGSEVQLVESGGGLVQPGGSLRLSCAATGFTLENKAIGWFRQTPGSEREGVLCISKSGSWTYYTDSMRGRFTISRDNAENTVYLQMDSLKPEDTAVYYCATTTAGGGLCWDGTTFSRLASSWGQGTQVTVSS
As to B6, the average neutralization titer in assay [38] was 5.8 nM; in assay [39] it was 7.7 nM; in [40] it was under 1000 nM; in assay [41], 18.1 nM; in assay [42], 43.2 nM; in assay [43], 21.6 nM.

B7: MD2401 (protein)
chain: EVQLVESGGGLVQPGGSLRLSCAVSISIFDIYAMDWYRQAPGKQRDLVATSFRDGSTNYADSVKGRFTISRDNAKNTLYLQMNSLKPEDTAVYLCHVSLYRDPLGVAGGMGVYWGKGALVTVSSAAAGGGGSGGGGSGGGGSGGGGSGGGGSGGGGSGGGGSEVQLVESGGGLVQAGGSLKLSCAASGRTYAMGWFRQAPGKEREFVAHINALGTRTYYSDSVKGRFTISRDNAKNTEYLEMNNLKPEDTAVYYCTAQGQWRAAPVAVAAEYEFWGQGTQVTVSSLINLEGGGGSGGGGSGGGGSGGGGSGGGGSGGGGSGGGGSPAGEVQLVESGGGLVQPGGSLRLSCAATGFTLENKAIGWFRQTPGSEREGVLCISKSGSWTYYTDSMRGRFTISRDNAENTVYLQMDSLKPEDTAVYYCATTTAGGGLCWDGTTFSRLASSWGQGTQVTVSSAAAGGGGSGGGGSGGGGSGGGGSGGGGSGGGGSGGGGSEVQLVESGGGLVQPGGSLRLSCAATGFTLENKAIGWFRQTPGSEREGVLCISKSGSWTYYTDSMRGRFTISRDNAENTVYLQMDSLKPEDTAVYYCATTTAGGGLCWDGTTFSRLASSWGQGTQVTVSS
With B7, the average neutralization titer turned out to be 36.3 nM in assay [44]; 27.7 nM in assay [45]; 27.7 nM in [38]; 277 nM in assay [30]; 27.7 nM in assay [39]; 14.7 nM in assay [46]. The average neutralization titer in assay [31] amounted to 165 nM.

What is called pIC50 is the IC50 on a negative log10 scale, so that one unit is a factor of ten. Higher therefore signals a low IC50. As usually defined, the Kd is the equilibrium constant for the complex coming apart.
